In article PMC8113581 (Nature Communications, 2021):

Target: T1, SARS-CoV-2 Spike S1+S2 ECD, his Tag protein (SARS-CoV-2, Wuhan-Hu-1, UniProt P0DTC2)
T1 construct: also called full-length S protein; full-length S-his; source: bought: Sino Biological
Test: ELISA
Conditions: both partners purified

B1: P4A1 (antibody, V domains shown)
VH: EVQLVESGGGLIQPGGSLRLSCAASGFIVSSNYMSWVRQAPGKGLEWVSIIYSGGSTFYADSVKGRFTISRDNSKNTLYLQMNSLRVEDTAVYYCARDLQELGSLDYWGQGTLVTVSS
VL: DIQMTQSPSSVSASVGDRVTITCRASQGISSWLAWYQQKPGKAPKLLIYAASSLQSGVPSRFSGSGSGTDFTLTISSLQPEDFATYYCQEANSFPYTFGQGTKLEIK
notes: also called P4A1 (IgG1); IgG1 form P4A1
binding result: binds
